Data reported in the supplement of paper PMC9170038.

System: MS2 coat protein
Assay: apparent KD of MS2 coat protein; designed switch direction (-1 OFF switch, 1 ON switch): -1; higher = weaker reporter binding
Outline: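 SNAP-549-labelled MS2 coat protein was titrated, doubling from 0.7 or 1.5 nM to 3 µM, over designed RNA switches transcribed on Illumina chips by stalled E. coli RNA polymerase. Runs were done without input, with 200 uM small-molecule ligand, or with an oligonucleotide input. Apparent KD is the per-design median over clusters of curve-fitted normalised fluorescence.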

[1] = input ligand: microRNA oligo, concentration not stated
[2] = Eterna round: R95, input ligand: microRNA oligo, concentration not stated

Sequence | apparent KD of MS2 coat protein [1] | apparent KD of MS2 coat protein (input ligand: FMN 200 uM) | apparent KD of MS2 coat protein (input ligand: none) | apparent KD of MS2 coat protein [2] | apparent KD of MS2 coat protein (Eterna round: R95, input ligand: FMN 200 uM) | apparent KD of MS2 coat protein (Eterna round: R95, input ligand: none)
ACAUGAGGAUCACCCAUGUGACCACAAUGGCUGAUAUAGAAACAGGAUAUUCGUGAAUAUCUAACGAAGAAGGGUUAUGACUGG [Deportation 65 - Jieux - Exclusion NG 3] (Eterna round: R96, puzzle: Exclusion NG 3) | 61 nM |  |  |  |  | 
CAUUAUGUUGAGGAUAUGCGCCGGCUCGCUGACGCAGAAGGCGACACAUGAGGAUCACCCAUGUCAGUUCGCGA [salish99_ex6_r004_420] (Eterna round: R97, puzzle: Exclusion 6) |  | 15.8 nM | 14.5 nM |  |  | 
UCAGCUUGUGUCAGGAUAUCCAGUCCGACGGGAGAGGAGAAGGGACAUGAGGAUCACCCAUGUAGGCGCCCUAC [Soerrecege] (Eterna round: R97, puzzle: Brourd's mod of Exclusion 4) |  | 63.8 nM | 461 nM |  |  | 
AUUCAACAUGAGGAUCACCCAUGUGAGGAUAUGCGAGUGCAGACUUCGGUUUGAUAGAGCAGAAGGCGCAGGUA [EX1 #13] (Eterna round: R97, puzzle: Exclusion 1) |  | 69.6 nM | 30.8 nM |  |  | 
AGGCGCUCUGUUAGGAUAUUUGCUGACUACUAGGCGGAGAAGGAACAUGAGGAUCACCCAUGUAUACGAUCCGC [BmEX4 C.16] (Eterna round: R97, puzzle: Brourd's mod of Exclusion 4) |  | 13.7 nM | 12.1 nM |  |  | 
GGCACACAUGAGGAUCACCCAUGUGAGGAUAUGUUAGUUUCGGCCAAAGCCGAAAUUAACAGAAGGCACAUGCC [JR_Exclusion1_Sub021] (puzzle: Exclusion 1) |  |  |  | 13.3 nM |  | 
CGCGCCUUUGUCAGGAUAUUCGGACGAGCCCGGCCGGAGAAGGGACUUGAGGAUCACCCAAGUGACGCGAAGAC [Anrearra] (Eterna round: R97, puzzle: Brourd's mod of Exclusion 4) |  | 35.1 nM | 31.9 nM |  |  | 
CGGUGUAGAGGAUAUACGUGAAUUUUGUUAUUUUUUAAUUUACAUGAGGAUCACCCAUGUAGAAGGCUAUAGCG [JR_Ex2_Sub086] (Eterna round: R97, puzzle: Exclusion 2) |  | 23.4 nM | 21.9 nM |  |  | 
GGUUGGCGAGGAUAUACAUGAGGAUCACCCAUGUGGUCCUGUGGAAAAAAAAACCUUUGUAGAAGGCGCGGGUC [salish99_ex3_r4_032] (Eterna round: R97, puzzle: Exclusion 3) |  | 415 nM | 534 nM |  |  | 
CAUGAUUGGCGAGGAUAUUGAUCUAGUUGGCGACGAGAAGGCGCCUGUCACAUGAGGAUCACCCAUGUGUGUCUGGUGAAUGAG [Ex NG1 #86] (Eterna round: R96, puzzle: Exclusion NG 1) | 48.4 nM | 82.5 nM | 63.3 nM |  |  | 
ACUUAUAGAGGAUAUACAGAAUAUUACAUGAGGAUCACCCAUGUUCUUCAAUGUAUAUUUGUAGAAGGCUAAGGAA [EX-5 Malc#7] (puzzle: Exclusion 5) |  |  |  | 45.6 nM | 192 nM | 40.6 nM
GCUGGACAUGAGGAUCACCCAUGUGAGGAUAUCGGCUGGUACGUGUUGGCUGGCAUCUCGAGAAGGCACAUAGU [Exclusion 1 V63] (puzzle: Exclusion 1) |  |  |  | 28.2 nM |  | 
AUAAAACGUGUAGGAUAUGCGUGGCGAAGCUAUGCAGAAGGACAUGAGGAUCACCCAUGUUCUAGCGUCUGCGUACAGAUGCUA [JL eng1 1.35 mod 4] (Eterna round: R96, puzzle: Exclusion NG 1) | 10.9 nM | 18.2 nM | 14.8 nM |  |  | 
CUUCGUAUAGAGGAUAUAGGAUACGAAAGUGUCCUAGAAGGCUGUACAUGAGGAUCACCCAUGUACUUCAGAUC [Exclusion 6 - B - 14:e] (puzzle: Exclusion 6) |  |  |  | 11.7 nM |  | 
GUACCAAUUGUAGGAUAUGGAUCCGAUUAGGAUCCAGAAGGACAUGAGGAUCACCCAUGUACAUGAGGAUCACCCAUUAGGUAC [Fiskers ExNg1 - 12] (Eterna round: R96, puzzle: Exclusion NG 1) | 30.9 nM | 53.2 nM | 46.1 nM |  |  | 
AGCUAGUCAGGAUAUUCUAAAUAUUACAUGAGGAUCACCCAUGUGAAUGGACAAGGGUGUGAAGAAGGGACUAGCG [Omei Ex5 A12] (Eterna round: R97, puzzle: Exclusion 5) |  | 262 nM | 959 nM |  |  | 
GUGUUGUCAGGAUAUCUUACAUAACUAUCGUUGUUACCAUUGGAGAAGGGACAUGAGGAUCACCCAUGUUUUCG [tap-tap-tappy50] (Eterna round: R97, puzzle: Exclusion 4) |  | 23.9 nM | 24.6 nM |  |  | 
UGAGUGCUGCGAGGAUAUACAUGAGGAUCACCCAUGUGGAUGUCUGAGGCAAAGCCUCAGACAAUGUAGAAGGCGCAGUACUCU [Mat - Exclusion NG 2 - Mod of JL - D55] (Eterna round: R96, puzzle: Exclusion NG 2) | 16.6 nM | 96.1 nM | 25.2 nM |  |  | 
AAACGGCGGAUCGUGGCUUUUUGCUCGUCUUGUGCUUCGACAUGAGGAUCACCCAUGUGGUGGUGAUCCGUUGUAAA [Grok-var2-16 mod JAL] (Eterna round: R96, puzzle: Sensor v3, turn-off variant 2) | 12.4 nM | 537 nM | 84 nM |  |  | 
GUUGCAAGCACUUACGUUGACAUGAGGAUCACCCAUGUAGCAUCUCCGCCAAUCUAAGCCGUUGUCUUAUAUACCUU [Eternabot (L2) Solution 3] (Eterna round: R97, puzzle: Sensor, turn-off variant 1) |  | 34.5 nM | 51.7 nM |  |  | 
GAAGUCGACUAGGAUAUUACAGGCUCAUGCCGUUGAGAAGGAGUGACAUGAGGAUCACCCAUGUCCUCAAGCGC [Eternabot (Original) Solution 48] (Eterna round: R97, puzzle: Exclusion 6) |  | 20.3 nM | 16.2 nM |  |  | 
CAUAGUUACUCAGGAUAUACUACAUGAGGAUCACCCAUGUAAUAAAUGAGAAUUUCGAAUGUAUAGUAGAAGGGAGAAAUCUAC [Ostracism 56 - Jieux - Exclusion NG 2] (Eterna round: R96, puzzle: Exclusion NG 2) | 14.7 nM | 18.3 nM | 23.8 nM |  |  | 
AGGUUGGGCGCAUCUUGCCACAUGAGGAUCACCCAUGUUGUACCAUUAGAAGAGAACAAGCUCUUUGCUCGUCUUAU [Sensor 1 S2] (Eterna round: R97, puzzle: Sensor, turn-off variant 1) |  | 32 nM | 39.5 nM |  |  | 
